The record followed here is PMC5844954.

In assay [1] the target is human LGN TPR domain, fragment 15-350 (human). Description: SEC; purified co-expressed complexes on a size-exclusion column with globular markers, Coomassie SDS-PAGE of peak fractions. A general note: SEC sorts molecules by how far they enter the pores of the column.
In assay [2] the target is human LGN TPR domain, residues 1-350, FLAG-tagged (and a GFP-tagged copy) (human). Nature of the assay: co-IP; HEK293T co-transfected with FLAG-LGN^TPR, GFP-LGN^TPR and GFP-Insc^ASYM-ΔαB; anti-FLAG M2 sepharose beads, modified JS buffer, 1 h at 4 °C.
Chain of human LGN TPR domain, residues 1-350, FLAG-tagged (and a GFP-tagged copy) (human) (P81274 1-350): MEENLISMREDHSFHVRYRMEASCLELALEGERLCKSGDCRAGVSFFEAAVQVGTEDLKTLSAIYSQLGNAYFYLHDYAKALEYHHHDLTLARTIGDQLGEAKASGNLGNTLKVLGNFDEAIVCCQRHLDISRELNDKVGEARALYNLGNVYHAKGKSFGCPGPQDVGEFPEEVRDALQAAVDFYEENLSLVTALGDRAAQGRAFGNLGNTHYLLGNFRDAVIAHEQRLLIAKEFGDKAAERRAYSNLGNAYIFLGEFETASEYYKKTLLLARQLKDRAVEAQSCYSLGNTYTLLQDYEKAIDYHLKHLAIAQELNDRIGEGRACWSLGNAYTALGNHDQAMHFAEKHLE

B1: human 6His-tagged full-length Insc (residues 1-532) (natural protein)
chain: MMALPGGRHLDSVTLPGQRLHLMQVDSVQRWMEDLKLMTECECMCVLQAKPISLEEDAQGDLILAGGPGPGDPLQLLLKRGWVISTELRRIGQKLAQDRWARVHSMSVRLTCHARSMVSEYSAVSRNSLKEMGEIEKLLMEKCSELSAVTERCLQVENEHVLKSMKACVSETLSMLGQHFGQLLELALTREVQALVRKIDASDNIYTTESTTGNLFSLTQEGAPLCRIIAKEGGVVALFKVCRQDSFRCLYPQALRTLASICCVEEGVHQLEKVDGVLCLADILTDNSHSEATRAEAAAVVAQVTSPHLPVTQHLSSFLESMEEIVTALVKLCQEASSGEVFLLASAALANITFFDTMACEMLLQLNAIRVLLEACSDKQRVDTPYTRDQIVTILANMSVLEQCASDIIQENGVQLIMGMLSEKPRSGTPAEVAACERVQQKAAVTLARLSRDPDVAREAVRLSCMSRLIELCRSPSERNSSDAVLVACLAALRRLAGVCPEGLQDSDFQQLVQPRLVDSFLLCSNMEESFV
For the molecule B1, the stoichiometry N (Insc per LGN (2:2)) in assay [1] worked out at 1.

B2: human GFP-Insc^ASYM-ΔαB (Insc^ASYM lacking residues 62-191) (domain or fragment)
chain: MMALPGGRHLDSVTLPGQRLHLMQVDSVQRWMEDLKLMTECECMCVLQAKPISLEEDAQGDVQALVRKIDASDNIYTTESTTGNLFSLTQEGAPLCRIIAKEGGVVALFKVCRQDSFRCLYPQALRTLASICCVEEGVHQLEKVDGVLCLADILTDNSHSEATRAEAAAVVAQVTSPHLPVTQHLSS
On to B2, for which the stoichiometry N (Insc per LGN (1:1)) in assay [2] turned out to be 1.
